Results as given in patent US20260284221 (published 2026).

Tests used:
Assay in all cases: BLI pH 7.4
[1] = molecular target: T1, Human Trop2 (human, UniProt P09758)
T1 chain: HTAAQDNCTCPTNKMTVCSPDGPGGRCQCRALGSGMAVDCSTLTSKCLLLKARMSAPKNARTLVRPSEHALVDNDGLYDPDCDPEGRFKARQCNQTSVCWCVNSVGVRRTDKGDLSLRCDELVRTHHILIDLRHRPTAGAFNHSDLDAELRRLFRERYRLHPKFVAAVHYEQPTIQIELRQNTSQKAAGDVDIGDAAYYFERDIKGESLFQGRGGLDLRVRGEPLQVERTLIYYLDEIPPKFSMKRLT

[2] = molecular target: T2, Mouse Trop2 (mouse, UniProt Q8BGV3)
T2 chain: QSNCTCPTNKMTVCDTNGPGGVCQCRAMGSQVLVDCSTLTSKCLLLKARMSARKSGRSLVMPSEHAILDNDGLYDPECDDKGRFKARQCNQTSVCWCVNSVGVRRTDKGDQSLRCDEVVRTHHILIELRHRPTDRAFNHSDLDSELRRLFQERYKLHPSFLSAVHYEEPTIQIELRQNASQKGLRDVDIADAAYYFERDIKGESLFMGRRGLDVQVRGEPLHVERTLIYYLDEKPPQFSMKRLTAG

[3] = molecular target: T3, Rhesus macaque Trop2 (rhesus macaque)
T3 chain: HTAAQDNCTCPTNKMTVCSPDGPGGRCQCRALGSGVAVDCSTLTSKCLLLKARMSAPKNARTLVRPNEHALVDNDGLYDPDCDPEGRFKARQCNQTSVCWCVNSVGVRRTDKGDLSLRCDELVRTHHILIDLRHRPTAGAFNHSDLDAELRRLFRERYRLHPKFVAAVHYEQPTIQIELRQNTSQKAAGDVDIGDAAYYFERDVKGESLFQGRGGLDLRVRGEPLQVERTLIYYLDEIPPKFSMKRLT

[4] = molecular target: T4, Rat Trop2 (rat, UniProt Q6P9Z6)
T4 chain: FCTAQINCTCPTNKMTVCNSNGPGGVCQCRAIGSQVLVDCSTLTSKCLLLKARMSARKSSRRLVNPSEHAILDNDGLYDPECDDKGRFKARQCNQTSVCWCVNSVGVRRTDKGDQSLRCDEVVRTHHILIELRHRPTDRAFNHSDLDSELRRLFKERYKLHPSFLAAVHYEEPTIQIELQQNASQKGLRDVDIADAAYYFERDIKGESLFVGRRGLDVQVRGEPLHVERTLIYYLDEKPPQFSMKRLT

Kd [1]: 22.6 nM | binding result [2]: no binding | Kd [3]: < 0.001 nM | binding result [4]: no binding
B1: L2-conjugated anti-Trop2 antibody (IB12) (antibody, V domains shown)
VH: EVQLVESGGGLVQPGGSLRLSCAASGFTFNNYAMSWVRQAPGKGLEWVSTISSDGTYTYYADSVKGRFTISRDNSKNTLYLQMNSLRAEDTAVYYCARHPPSYYYAFDYWGQGTTLTVSS
VL: EIVLTQSPGTLSLSPGERATLSCRASESVDSYGNSFIHWYQQKPGQAPRLLIYLASNLESGIPDRFSGSGSGTDFTLTISRLEPEDFAVYYCQQNNEDLWTFGGGTKLEIK
modifications: conjugated with L2 linker; heavy constant SEQ2, light constant SEQ4
